Assay results as given in US10808017B2, “Ubiquitin variants and uses therof as 53BP1 inhibitors” (The Governing Council of the University of Toronto, priority 2016, dated 2020).

Key:
[1] = target: T1, TTC12 (Homo sapiens, UniProt Q9H892); assay: Flag IP-MS of i53/i53-DM baits: prey TTC12; format: binding; settings: 293T Flp-In/T-Rex extracts, LC-MS/MS, one column per replicate IP
T1 construct: endogenous in cells; host or cells: HEK293 Flp-In/T-REx cells
T1 sequence (Q9H892 1-705): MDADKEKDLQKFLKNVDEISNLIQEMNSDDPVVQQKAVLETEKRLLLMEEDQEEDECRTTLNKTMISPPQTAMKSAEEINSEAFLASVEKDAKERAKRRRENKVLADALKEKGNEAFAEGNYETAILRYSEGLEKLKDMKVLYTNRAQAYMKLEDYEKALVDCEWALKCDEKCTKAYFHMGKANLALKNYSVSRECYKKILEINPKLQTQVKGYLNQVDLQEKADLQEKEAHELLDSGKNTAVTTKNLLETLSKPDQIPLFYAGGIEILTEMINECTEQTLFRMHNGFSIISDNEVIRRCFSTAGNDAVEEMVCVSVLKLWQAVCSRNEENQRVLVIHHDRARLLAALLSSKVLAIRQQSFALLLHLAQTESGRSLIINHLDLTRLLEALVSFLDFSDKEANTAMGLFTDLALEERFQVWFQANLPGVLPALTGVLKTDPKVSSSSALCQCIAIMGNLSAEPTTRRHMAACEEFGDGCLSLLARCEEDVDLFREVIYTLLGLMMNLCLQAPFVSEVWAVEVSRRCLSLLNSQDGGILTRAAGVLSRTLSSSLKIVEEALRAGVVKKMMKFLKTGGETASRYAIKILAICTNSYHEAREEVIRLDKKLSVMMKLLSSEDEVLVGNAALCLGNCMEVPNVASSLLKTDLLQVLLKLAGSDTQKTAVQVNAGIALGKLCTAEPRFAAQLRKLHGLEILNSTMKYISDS
Protocol: Following immunoprecipitation of Flag-tagged i53 and i-53-DM from HEK293 Flp-In/T-REx cells, peptides were identified using LC-MS/MS. Proteins were digested in solution with trypsin (Sigma, T7575-1KT) and dried to completeness. For LC-MS/MS analysis, peptides were reconstituted in 5% formic acid and loaded onto a 12-15 cm fused silica column with pulled tip packed in-house with 3.5 μm Zorbax C18 (Agilent Technologies, Calif., USA).
i53 and i53-DM precipitates were analyzed using an LTQ (Thermo Scientific) coupled to an Agilent 1100 Series HPLC (Agilent Technologies). Peptides were eluted from the column using a 90 min period cycle with a linear gradient from 0% to 40% ACN in 0.1% formic acid. Tandem MS spectra were acquired in a data-dependent mode for the top 5 (LTQ) most abundant ions using collision-induced dissociation. Acquired spectra were searched against the human Refseq_V53 database using Mascot (Matrix Science).
293T Flp-In/T-Rex cell lines were generated that expressed Flag-tagged i53 or i53-DM under the control of a tetracycline-inducible promoter as previously described. Nine IP-MS experiments were analyzed (3 biological replicate IPs each for control i53- and i53-DM expressing cell lines). The interacting proteins were identified by MASCOT to identify high-confidence interactors for i53. […]

[2] = system: BRCA1-deficient RPE1-hTERT cells; assay: Olaparib sensitivity assay; format: cell-based; settings: viral delivery of HA-tagged i53; compared to genetic deletion of 53BP1; Trypan blue viable count
Excerpt: FIG. 9 Expression of i53 suppresses PARP inhibitor sensitivity of BRCA1-deficience cells. FIG. 9A, An isogenic set of cell lines derived from RPE 1-hTERT cells deleted for the gene coding for p53 (TP53Δ) containing either no further mutations (WT) or null mutations in BRCA1 (BRCA1Δ) or 53BP1 (53BP1Δ) alone or in combination, as indicated. These cell lines were transduced either with an empty virus (EV) or with lentiviruses that express HA-tagged i53 or its DM mutant. The virus also expressed GFP from an IRES. After sorting for GFP cells the viability of cells following olaparib treatment for […] was monitored by trypan blue exclusion. Data is presented as the mean +/− s.d. (N=3). FIG. 9B , Whole-cell extracts from the isogenic sets of RPE1-hTERT TP53Δ cells were separated by SDS page and probed by immunoblotting with the indicated antibodies. FIG. 9C , Expression of the HA-tagged Ubvs in the indicated RPE1-hTERT TP53Δ cell lines was determined by anti-HA immunoprecipitation (IP) followed by immunoblotting.
RPE1 hTERT cells were obtained from ATTC and maintained in DMEM +10% FCS. […]
Cells were seeded at a density of 20,000 cells/well in 6-well plates in the presence of olaparib at day 0. […] At day 6, cells were collected by trypsinization and viable cell count was determined by Trypan blue exclusion using an automated cell counter (Vi-CELL, Beckman Coulter).

| Substance | Total peptides, TTC12 [1] | Alleviation of PARP inhibitor (olaparib) sensitivity [2] |
| --- | --- | --- |
| i53-DM: 53BP1-binding deficient mutant of i53 (P69L, L70V) | 3 |  |
| i53: UbvG08 with C-terminal di-glycine removed and I44A mutation; genetically encoded inhibitor of 53BP1 |  | only partially alleviated |
